Test results reported in PMC4836650 (RNA, 2016).

Target: L7Ae (Pyrococcus furiosus, UniProt Q8U160 1-123)
Assay: SEC

binding result: binds
B1: Nop5 (L148K, V223E) (natural protein)
chain: MKAFISENVRGIYAFDENGNLIEKRYFTDKPEKVLDQLLKGEITKDLEELLNSLKEKGYDEFVFEHPELSRRAKELGFSATTEFPNIAGERLRSNPEEFLGENWFEEYYKVGVALTRMRIQEQSGARDKMVIQAIEALDDVDKVINLKVARLREWYSLHFPELDELLPKHPQYVAFVKTVGHRDNINEEVLRELGLSEEKIKKILEAKEKTMGAWMDQTDIEEVRQLAEEIDRLYQLRKKLEDYIDRAMDDVAPNLKALVGAKLAARLISLAGGLRELAMMPSSTIQVLGAEKALFRHLRTGAKPPKHGVIYQYPAINRSPWWQRGKIARALAGKLAIAARVDYFSGEYIAEELKKELEARIREIKEKYPKPPKRKREERKGKKPWKKDKKKKKKKEKPRRR
